Tests used:
[1] = molecular target: T1, recombinant human BTN3A1 (human, UniProt O00481 30-254); assay: SPR
T1 construct: Soluble form of the antigen used in SPR; also called rhBTN3A1; recombinant BTN3A1 protein
Protocol: SPR measures the interactions between two or more biomolecules. In capture kinetics analysis, an antibody is immobilized onto a gold-plated prism. The immobilized antibody is referred to as the ligand. An injection of antigen, referred to as the analyte, is carried out, often as a concentration series. The captured analytes are removed from the sensor chip surface using a regenerating agent, for example a low pH or high ionic strength solution. If investigating binding to several analytes, the antibodies are recaptured from solution before each analyte titration series. The instrument records the changes in refractive indexes (due to the accumulation or depletion of mass) in time and plots the results as sensorgrams.
Affinity measurements with respect to BTN3A, PD-1 and PD-L1 were performed by SPR technology, for instance in a Carterra LSA Platform instrument using a soluble form of the antigen as the analyte and the antibody as the ligand. Binding was also assessed through in cellulo binding assays, on cell lines (e.g. HEK293T cells) genetically modified to express the targets of interest or genetically modified to extinct target expression.
The 69 produced bsAbs and control mAbs were also evaluated for their binding affinity to recombinant proteins by SPR assays. The equilibrium dissociation constant (KD) was then calculated for constructs showing detectable binding.

[2] = molecular target: T2, BTN3A1 at the surface of HEK-BTN3A1 cells (human, UniProt O00481 30-513); assay: flow cytometry, HEK-BTN3A1 cells
T2 construct: HEK 293T BTN2A/BTN3A KO cells transduced with a BTN3A1 expressing vector
T2 sequence (O00481 30-513 limits assumed): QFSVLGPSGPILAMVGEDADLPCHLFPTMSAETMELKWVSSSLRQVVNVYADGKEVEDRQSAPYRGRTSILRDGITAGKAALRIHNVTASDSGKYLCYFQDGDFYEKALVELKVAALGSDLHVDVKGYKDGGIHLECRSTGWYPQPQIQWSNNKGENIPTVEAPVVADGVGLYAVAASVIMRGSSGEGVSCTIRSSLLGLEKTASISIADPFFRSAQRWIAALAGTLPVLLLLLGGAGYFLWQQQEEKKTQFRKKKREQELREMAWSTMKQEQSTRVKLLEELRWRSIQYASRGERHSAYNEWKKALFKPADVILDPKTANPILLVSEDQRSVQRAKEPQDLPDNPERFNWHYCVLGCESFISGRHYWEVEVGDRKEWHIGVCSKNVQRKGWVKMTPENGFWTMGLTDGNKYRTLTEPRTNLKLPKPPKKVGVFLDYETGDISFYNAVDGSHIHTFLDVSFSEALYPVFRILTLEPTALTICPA

[3] = molecular target: T3, PD-1 at the surface of Jurkat-PD-1 cells (human, UniProt Q15116 25-288); assay: flow cytometry, Jurkat-PD-1 cells
T3 construct: whole, on cells
T3 sequence (Q15116 25-288): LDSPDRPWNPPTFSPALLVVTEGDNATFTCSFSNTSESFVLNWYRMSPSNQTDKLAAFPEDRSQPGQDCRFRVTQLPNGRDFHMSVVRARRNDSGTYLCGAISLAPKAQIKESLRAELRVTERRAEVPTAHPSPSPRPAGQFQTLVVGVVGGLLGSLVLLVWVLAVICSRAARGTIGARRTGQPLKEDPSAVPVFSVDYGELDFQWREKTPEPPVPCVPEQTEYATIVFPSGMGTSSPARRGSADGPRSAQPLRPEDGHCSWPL

[4] = molecular target: T3, PD-1 at the surface of Jurkat-PD-1 cells; assay: cell-based or functional assay

T1 sequence (O00481 30-254 limits assumed): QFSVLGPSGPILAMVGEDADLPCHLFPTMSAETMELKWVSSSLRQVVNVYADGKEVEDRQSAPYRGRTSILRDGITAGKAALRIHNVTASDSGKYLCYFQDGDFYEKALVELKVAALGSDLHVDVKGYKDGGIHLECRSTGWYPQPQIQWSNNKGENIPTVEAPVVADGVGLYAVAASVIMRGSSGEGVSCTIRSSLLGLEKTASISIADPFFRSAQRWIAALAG

B1: bsAb018 (bispecific antibody)
heavy: EIVLTQSPATLSLSPGERATLSCRASKGVSTSGYSYLHWYQQKPGQAPRLLIYLASYLESGVPARFSGSGSGTDFTLTISSLEPEDFAVYYCQHSRDLPLTFGGGTKVEIKGGGGSGGGGSGGGGSGGGGSQVQLVQSGVEVKKPGASVKVSCKASGYTFTNYYMYWVRQAPGQGLEWMGGINPSNGGTNFNEKFKNRVTLTTDSSTTTAYMELKSLQFDDTAVYYCARRDYRFDMGFDYWGQGTTVTVSSGGGGSGGGGSGGGGSGGGGSQVQLVQSGAEVKKPGASVKLSCKASGYIFTRYYMYWVKQRPGQGLEWIGEINPNNGGTKFNEKFKNRATLTVDKSISTAYMELSRLRSDDTAVYYCSREDDYDGTPFAMDYWGQGTLVTVSSASTKGPSVFPLAPSSKSTSGGTAALGCLVKDYFPEPVTVSWNSGALTSGVHTFPAVLQSSGLYSLSSVVTVPSSSLGTQTYICNVNHKPSNTKVDKRVEPKSCDKTHTCPPCPAPEFEGGPSVFLFPPKPKDTLMISRTPEVTCVVVDVSHEDPEVKFNWYVDGVEVHNAKTKPREEQYNSTYRVVSVLTVLHQDWLNGKEYKCKVSNKALPASIEKTISKAKGQPREPQVYTLPPSREEMTKNQVSLTCLVKGFYPSDIAVEWESNGQPENNYKTTPPVLDSDGSFFLYSKLTVDKSRWQQGNVFSCSVMHEALHNHYTQKSLSLSPG
light: not shown
notes: IgG anti-BTN3A, scFv anti-PD-1
Kd [1]: 0.212 nM | MFI at 10 nM [2]: 502000 MFI | MFI at 100 nM [2]: 1.08e+06 MFI | MFI at 100 nM [3]: 347000 MFI

B2: ICT01 (antibody, V domains shown)
VH: QVQLVQSGAEVKKPGASVKLSCKASGYIFTRYYMYWVKQRPGQGLEWIGEINPNNGGTKFNEKFKNRATLTVDKSISTAYMELSRLRSDDTAVYYCSREDDYDGTPFAMDYWGQGTLVTVSS
VL: DIQMTQSPSSLSASVGDRVTITCHASQNINVWLSWYQQKPGKAPKLLIYKASNLHTGVPSRFTGSGSGTDFTFTISSLQPEDIATYYCQQGQTYPYTFGQGTKLEIK
notes: also called anti-BTN3A mAb; mAb 7.2
Kd [1]: 0.073 nM | MFI at 10 nM [2]: 1.01e+06 MFI | MFI at 100 nM [2]: 1.82e+06 MFI

B3: bsAb001 (bispecific antibody, human IgG1, kappa)
heavy: QVQLVQSGAEVKKPGASVKLSCKASGYIFTRYYMYWVKQRPGQGLEWIGEINPNNGGTKFNEKFKNRATLTVDKSISTAYMELSRLRSDDTAVYYCSREDDYDGTPFAMDYWGQGTLVTVSSASTKGPSVFPLAPSSKSTSGGTAALGCLVKDYFPEPVTVSWNSGALTSGVHTFPAVLQSSGLYSLSSVVTVPSSSLGTQTYICNVNHKPSNTKVDKRVEPKSCDKTHTCPPCPAPEFEGGPSVFLFPPKPKDTLMISRTPEVTCVVVDVSHEDPEVKFNWYVDGVEVHNAKTKPREEQYNSTYRVVSVLTVLHQDWLNGKEYKCKVSNKALPASIEKTISKAKGQPREPQVYTLPPSREEMTKNQVSLTCLVKGFYPSDIAVEWESNGQPENNYKTTPPVLDSDGSFFLYSKLTVDKSRWQQGNVFSCSVMHEALHNHYTQKSLSLSPGGGGGSGGGGSGGGGSGGGGSQVQLVQSGVEVKKPGASVKVSCKASGYTFTNYYMYWVRQAPGQGLEWMGGINPSNGGTNFNEKFKNRVTLTTDSSTTTAYMELKSLQFDDTAVYYCARRDYRFDMGFDYWGQGTTVTVSSGGGGSGGGGSGGGGSGGGGSEIVLTQSPATLSLSPGERATLSCRASKGVSTSGYSYLHWYQQKPGQAPRLLIYLASYLESGVPARFSGSGSGTDFTLTISSLEPEDFAVYYCQHSRDLPLTFGGGTKVEIK
light: not shown
notes: IgG anti-BTN3A, scFv anti-PD-1 (VH-VL) at heavy chain C-terminus
Jurkat-PD-1 activation at 10 nM [4]: 8 fold-change to medium | MFI at 10 nM [2]: 507000 MFI | MFI at 100 nM [2]: 710000 MFI | MFI at 10 nM [3]: 179000 MFI | MFI at 100 nM [3]: 396000 MFI

B4: bsAb026 (bispecific antibody)
heavy: QVQLVQSGAEVKKPGASVKLSCKASGYIFTRYYMYWVKQRPGQGLEWIGEINPNNGGTKFNEKFKNRATLTVDKSISTAYMELSRLRSDDTAVYYCSREDDYDGTPFAMDYWGQGTLVTVSSASTKGPSVFPLAPSSKSTSGGTAALGCLVKDYFPEPVTVSWNSGALTSGVHTFPAVLQSSGLYSLSSVVTVPSSSLGTQTYICNVNHKPSNTKVDKRVEPKSCDKTHTCPPCPAPEFEGGPSVFLFPPKPKDTLMISRTPEVTCVVVDVSHEDPEVKFNWYVDGVEVHNAKTKPREEQYNSTYRVVSVLTVLHQDWLNGKEYKCKVSNKALPASIEKTISKAKGQPREPQVYTLPPSREEMTKNQVSLTCLVKGFYPSDIAVEWESNGQPENNYKTTPPVLDSDGSFFLYSKLTVDKSRWQQGNVFSCSVMHEALHNHYTQKSLSLSPGGGGGSGGGGSGGGGSGGGGSQVQLVQSGVEVKKPGASVKVSCKASGYTFTNYYMYWVRQAPGQGLEWMGGINPSNGGTNFNEKFKNRVTLTTDSSTTTAYMELKSLQFDDTAVYYCARRDYRFDMGFDYWGQGTTVTVSSASTKGPSVFPLAPSSKSTSGGTAALGCLVKDYFPEPVTVSWNSGALTSGVHTFPAVLQSSGLYSLSSVVTVPSSSLGTQTYICNVNHKPSNTKVDKKVEPKSCDKTHTGGSSGSGSGSTGTSSSGTGTSAGTTGTSASTSGSGSGGGGGSGGGGSAGGEIVLTQSPATLSLSPGERATLSCRASKGVSTSGYSYLHWYQQKPGQAPRLLIYLASYLESGVPARFSGSGSGTDFTLTISSLEPEDFAVYYCQHSRDLPLTFGGGTKVEIKRTVAAPSVFIFPPSDEQLKSGTASVVCLLNNFYPREAKVQWKVDNALQSGNSQESVTEQDSKDSTYSLSSTLTLSKADYEKHKVYACEVTHQGLSSPVTKSFNRGEC
light: not shown
notes: IgG anti-BTN3A, scFab anti-PD-1; formula printed IgG(H)-VH-CH1-linker1-VL-CL-linker2-
Kd [1]: 0.068 nM | MFI at 10 nM [2]: 410000 MFI | MFI at 100 nM [2]: 1.03e+06 MFI | MFI at 10 nM [3]: 73300 MFI | MFI at 100 nM [3]: 257000 MFI

B5: bsAb042 (bispecific antibody)
heavy 1: QVQLVQSGVEVKKPGASVKVSCKASGYTFTNYYMYWVRQAPGQGLEWMGGINPSNGGTNFNEKFKNRVTLTTDSSTTTAYMELKSLQFDDTAVYYCARRDYRFDMGFDYWGQGTTVTVSS
heavy 2: QVQLVQSGAEVKKPGASVKLSCKASGYIFTRYYMYWVKQRPGQGLEWIGEINPNNGGTKFNEKFKNRATLTVDKSISTAYMELSRLRSDDTAVYYCSREDDYDGTPFAMDYWGQGTLVTVSSGGGGSGGGGSGGGGSGGGGSDIQMTQSPSSLSASVGDRVTITCHASQNINVWLSWYQQKPGKAPKLLIYKASNLHTGVPSRFTGSGSGTDFTFTISSLQPEDIATYYCQQGQTYPYTFGQGTKLEIKGGGGSGGGGSGGGGSGGGGS
light: EIVLTQSPATLSLSPGERATLSCRASKGVSTSGYSYLHWYQQKPGQAPRLLIYLASYLESGVPARFSGSGSGTDFTLTISSLEPEDFAVYYCQHSRDLPLTFGGGTKVEIKRTVAAPSVFIFPPSDEQLKSGTASVVCLLNNFYPREAKVQWKVDNALQSGNSQESVTEQDSKDSTYSLSSTLTLSKADYEKHKVYACEVTHQGLSSPVTKSFNRGECGGGGSGGGGSGGGGSGGGGSDIQMTQSPSSLSASVGDRVTITCHASQNINVWLSWYQQKPGKAPKLLIYKASNLHTGVPSRFTGSGSGTDFTFTISSLQPEDIATYYCQQGQTYPYTFGQGTKLEIKGGGGSGGGGSGGGGSGGGGSQVQLVQSGAEVKKPGASVKLSCKASGYIFTRYYMYWVKQRPGQGLEWIGEINPNNGGTKFNEKFKNRATLTVDKSISTAYMELSRLRSDDTAVYYCSREDDYDGTPFAMDYWGQGTLVTVSS
notes: one Fab arm anti-PD-1, two scFv anti-BTN3A; not shown: IgG1 CH1-hinge-CH2-CH3; CH2-CH3 (Fc)
Kd [1]: 0.093 nM | MFI at 10 nM [2]: 824000 MFI | MFI at 100 nM [2]: 1.24e+06 MFI | MFI at 10 nM [3]: 212000 MFI | MFI at 100 nM [3]: 362000 MFI
